Laboratory results from patent publication KR20150001391A.

B1: (2E9+GFP) (protein, part only; not given: linker, GFP, His tag, part only)
chain, part: ESGGGSVQAGGSLRLSCTASGFTFADSDMGWYRQAPGKERERVAAIDSDGRTSYADSVKGRFTISKDNAKNTLYLQMNSLKPEDTAMYYCAAGVPTYDSSWCSRDYWGKGTQVTVSS
B2: (2B12+GFP) (protein, part only; not given: linker, GFP, His tag, part only)
chain, part: ESGGGSVQVGESLRLACTASEFTFDDTDVGWYRQAPGNECELVSSINSDGGTYYTDSVKGRFTISLDNGKNTVYLQMDSLKPEDTAVYYCVADAKVKAQALGTLLCRILGNWGQGTQVTVSS
B3: (53A1+GFP) (protein, part only; not given: linker, GFP, His tag, part only)
chain, part: B2 chain, part
B4: (2E9+RFP) (protein, part only; not given: linker, RFP, His tag, part only)
chain, part: B1 chain, part
B5: (2B12+RFP) (protein, part only; not given: linker, RFP, His tag, part only)
chain, part: B2 chain, part
B6: (53A1+RFP) (protein, part only; not given: linker, RFP, His tag, part only)
chain, part: B2 chain, part

These binders were tested against M13 박테리오파지에서 전시되는 스트렙타비딘(streptavidin) (assay: fluorescence ELISA; plate coated with streptavidin-displaying M13 phage; fusion protein at 10, 50, 100 μg/ml; ex 395 nm / em 509 nm; reference is biotin-bound GFP).

Question: For B1, which fold fluorescence against biotin-bound GFP is on record?
Answer: 2 배 (fold)

Question: Which fold fluorescence against biotin-bound GFP does the source give for B2 here?
Answer: 2 배 (fold)

Question: How did the fold fluorescence against biotin-bound GFP turn out when B3 was run?
Answer: 2 배 (fold)

Each binder was assayed against M13 박테리오파지에서 전시되는 스트렙타비딘(streptavidin) (assay: fluorescence ELISA; plate coated with streptavidin-displaying M13 phage; fusion protein at 10, 50, 100 μg/ml; ex 554 nm / em 581 nm; reference is biotin-bound RFP).

Question: How did the fold fluorescence against biotin-bound RFP turn out when B4 was run?
Answer: 2 배 (fold)

Question: How did the fold fluorescence against biotin-bound RFP turn out when B5 was run?
Answer: 2 배 (fold)

Question: Which fold fluorescence against biotin-bound RFP does the source give for B6 here?
Answer: 2 배 (fold)
